# Measured values from the supplement of paper PMC9112550, “Optimization of the antimicrobial peptide Bac7 by deep mutational scanning” (BMC Biology, 2022).
# Test system: Escherichia coli TOP10
# Assay: shrunken log2 fold change of peptide-encoding DNA abundance (4.5 h post-induction vs induction); higher = less antimicrobial activity (less host growth inhibition)
# Conditions: time post-induction: 4.5 h; library: site-saturation at positions 5, 18, 19, 20
# 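Also: peptides expressed intracellularly from a pBAD plasmid library in pooled LB shake-flask culture, induced with 0.3% L-arabinose, DNA abundance read by NGS, three biological replicates, DESeq2 with apeglm shrinkage.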
row,Sequence,shrunken log2 fold change
1,RRIRHRPPRLPRPRPRPHNWPRP,-0.214
2,RRIRNRPPRLPRPRPRPFMDPRP,0.0237
3,RRIRMRPPRLPRPRPRPFCMPRP,-0.33
4,RRIRIRPPRLPRPRPRPSLDPRP,-0.564
5,RRIRVRPPRLPRPRPRPCFEPRP,-0.0173
6,RRIRVRPPRLPRPRPRPYWHPRP,-0.636
7,RRIRPRPPRLPRPRPRPYKPPRP,-0.481
8,RRIRVRPPRLPRPRPRPNMIPRP,-0.491
9,RRIRERPPRLPRPRPRPWGGPRP,0.267
10,RRIRERPPRLPRPRPRPDFAPRP,0.159
11,RRIRVRPPRLPRPRPRPHCEPRP,-0.0141
12,RRIRPRPPRLPRPRPRPQMPPRP,-0.451
13,RRIRERPPRLPRPRPRPSSAPRP,0.0581
14,RRIRSRPPRLPRPRPRPKDMPRP,-0.123
15,RRIRSRPPRLPRPRPRPQYQPRP,-0.136
16,RRIRDRPPRLPRPRPRPIGNPRP,0.279
17,RRIRSRPPRLPRPRPRPPCYPRP,-0.145
18,RRIRYRPPRLPRPRPRPVTRPRP,-0.129
19,RRIRNRPPRLPRPRPRPCCTPRP,2.47
20,RRIRKRPPRLPRPRPRPNHNPRP,-0.382
21,RRIRVRPPRLPRPRPRPDRMPRP,-0.268
22,RRIRRRPPRLPRPRPRPEVFPRP,0.0496
23,RRIRHRPPRLPRPRPRPWMEPRP,-0.00645
24,RRIRGRPPRLPRPRPRPKFHPRP,0.199
25,RRIRMRPPRLPRPRPRPNTKPRP,-0.0097

row,Sequence,shrunken log2 fold change
1,RRIRERPPRLPRPRPRPRFDPRP,1.26
2,RRIRSRPPRLPRPRPRPYSQPRP,-0.0604
3,RRIRTRPPRLPRPRPRPCYYPRP,0.0075
4,RRIRGRPPRLPRPRPRPKKSPRP,0.834
5,RRIRERPPRLPRPRPRPPWPPRP,0.408
6,RRIRLRPPRLPRPRPRPSMPPRP,-0.4
7,RRIRQRPPRLPRPRPRPAMAPRP,-0.134
8,RRIRHRPPRLPRPRPRPIEHPRP,-0.394
9,RRIRQRPPRLPRPRPRPCIDPRP,-0.424
10,RRIRTRPPRLPRPRPRPHICPRP,-0.13
11,RRIRCRPPRLPRPRPRPDILPRP,-0.0877
12,RRIRERPPRLPRPRPRPCYYPRP,-0.312
13,RRIRQRPPRLPRPRPRPEVYPRP,-0.0137
14,RRIRPRPPRLPRPRPRPLAQPRP,0.192
15,RRIRPRPPRLPRPRPRPPYMPRP,-0.288
16,RRIRHRPPRLPRPRPRPPSLPRP,-0.0977
17,RRIRTRPPRLPRPRPRPCQMPRP,-0.267
18,RRIRSRPPRLPRPRPRPCKMPRP,-0.215
19,RRIRSRPPRLPRPRPRPPAMPRP,0.344
20,RRIRIRPPRLPRPRPRPPVLPRP,0.328
21,RRIRLRPPRLPRPRPRPKPQPRP,0.212
22,RRIRYRPPRLPRPRPRPDWAPRP,0.0528
23,RRIRRRPPRLPRPRPRPHKGPRP,0.221
24,RRIRKRPPRLPRPRPRPCMVPRP,0.309
25,RRIRMRPPRLPRPRPRPTRNPRP,0.212

row,Sequence,shrunken log2 fold change
1,RRIRKRPPRLPRPRPRPRIWPRP,0.434
2,RRIRMRPPRLPRPRPRPRSDPRP,0.722
3,RRIRFRPPRLPRPRPRPECIPRP,-0.04
4,RRIRWRPPRLPRPRPRPWHAPRP,0.0362
5,RRIRERPPRLPRPRPRPREEPRP,-0.00173
6,RRIRGRPPRLPRPRPRPNHKPRP,-0.195
7,RRIRARPPRLPRPRPRPKCCPRP,0.165
8,RRIRPRPPRLPRPRPRPKRYPRP,0.281
9,RRIRHRPPRLPRPRPRPIWVPRP,0.0163
10,RRIRCRPPRLPRPRPRPEHVPRP,0.229
11,RRIRVRPPRLPRPRPRPCHFPRP,-0.0858
12,RRIRARPPRLPRPRPRPNQVPRP,-0.0439
13,RRIRIRPPRLPRPRPRPWYWPRP,-1.38
14,RRIRNRPPRLPRPRPRPTACPRP,0.0275
15,RRIRWRPPRLPRPRPRPLDGPRP,0.15
16,RRIRGRPPRLPRPRPRPYAHPRP,0.023
17,RRIRIRPPRLPRPRPRPDFNPRP,-0.701
18,RRIRHRPPRLPRPRPRPAPNPRP,0.497
19,RRIRARPPRLPRPRPRPQMYPRP,-0.3
20,RRIRIRPPRLPRPRPRPRNFPRP,-0.283
21,RRIRRRPPRLPRPRPRPQCRPRP,0.123
22,RRIRRRPPRLPRPRPRPIEFPRP,-0.0597
23,RRIRDRPPRLPRPRPRPSNSPRP,-0.365
24,RRIRTRPPRLPRPRPRPKTIPRP,-0.292
25,RRIRVRPPRLPRPRPRPKYIPRP,-0.821

row,Sequence,shrunken log2 fold change
1,RRIRYRPPRLPRPRPRPKKEPRP,-0.00181
2,RRIRKRPPRLPRPRPRPWNPPRP,0.159
3,RRIRIRPPRLPRPRPRPWPYPRP,-0.163
4,RRIRKRPPRLPRPRPRPSWPPRP,0.321
5,RRIRSRPPRLPRPRPRPCRWPRP,0.0467
6,RRIRRRPPRLPRPRPRPFTYPRP,-0.22
7,RRIRARPPRLPRPRPRPYHMPRP,0.00865
8,RRIRQRPPRLPRPRPRPILSPRP,0.0165
9,RRIRVRPPRLPRPRPRPHMQPRP,0.0906
10,RRIRLRPPRLPRPRPRPMPWPRP,0.276
11,RRIRQRPPRLPRPRPRPLGFPRP,0.0916
12,RRIRARPPRLPRPRPRPDDQPRP,1.41
13,RRIRHRPPRLPRPRPRPWFIPRP,-0.775
14,RRIRYRPPRLPRPRPRPDYHPRP,-0.0195
15,RRIRPRPPRLPRPRPRPVANPRP,0.495
16,RRIRLRPPRLPRPRPRPVSNPRP,-0.837
17,RRIRGRPPRLPRPRPRPDFVPRP,0.0455
18,RRIRARPPRLPRPRPRPLCWPRP,0.43
19,RRIRMRPPRLPRPRPRPLTPPRP,1.13
20,RRIRIRPPRLPRPRPRPDYYPRP,-0.155
21,RRIRCRPPRLPRPRPRPCPAPRP,-0.178
22,RRIRYRPPRLPRPRPRPLLHPRP,-0.541
23,RRIRTRPPRLPRPRPRPEGWPRP,0.688
24,RRIRYRPPRLPRPRPRPTSLPRP,-0.0466
25,RRIRKRPPRLPRPRPRPPGDPRP,0.905

row,Sequence,shrunken log2 fold change
1,RRIRIRPPRLPRPRPRPWRKPRP,-0.143
2,RRIRRRPPRLPRPRPRPVPLPRP,0.385
3,RRIRPRPPRLPRPRPRPQWDPRP,-0.355
4,RRIRVRPPRLPRPRPRPDVKPRP,-0.0375
5,RRIRERPPRLPRPRPRPMINPRP,-0.0967
6,RRIRFRPPRLPRPRPRPIYPPRP,-0.574
7,RRIRARPPRLPRPRPRPVYDPRP,0.0386
8,RRIRFRPPRLPRPRPRPYRKPRP,-0.186
9,RRIRKRPPRLPRPRPRPEYRPRP,0.012
10,RRIRRRPPRLPRPRPRPFMPPRP,-0.00307
11,RRIRTRPPRLPRPRPRPFYPPRP,-0.478
12,RRIRFRPPRLPRPRPRPIYCPRP,-0.0425
13,RRIRTRPPRLPRPRPRPFLLPRP,-0.743
14,RRIRKRPPRLPRPRPRPIRRPRP,0.0536
15,RRIRMRPPRLPRPRPRPLSDPRP,0.861
16,RRIRTRPPRLPRPRPRPHKCPRP,0.215
17,RRIRPRPPRLPRPRPRPWEYPRP,-0.05
18,RRIRPRPPRLPRPRPRPNIQPRP,-0.404
19,RRIRPRPPRLPRPRPRPWVSPRP,0.0233
20,RRIRRRPPRLPRPRPRPDNMPRP,-0.259
21,RRIRFRPPRLPRPRPRPDQGPRP,-0.167
22,RRIRFRPPRLPRPRPRPSLKPRP,-0.196
23,RRIRKRPPRLPRPRPRPGYTPRP,-0.0679
24,RRIRYRPPRLPRPRPRPGLPPRP,0.107
25,RRIRMRPPRLPRPRPRPMQKPRP,0.0563
